# In patent US20240132578A1:
# Tests used:
# [1] = target: HIV-1 Env of isolate 92UG037 (pseudovirus) (HIV-1); test: cell-based or functional assay
# [2] = target: HIV-1 Env of isolate 94UG103 (pseudovirus) (HIV-1); test: cell-based or functional assay
# [3] = target: HIV-1 92RW020 Env (HIV-1); test: cell-based or functional assay
# [4] = target: HIV-1 Env of isolate MGRM-AE-006 (pseudovirus) (HIV-1); test: cell-based or functional assay
# [5] = target: HIV-1 Env of isolate 93UG077 (pseudovirus) (HIV-1); test: cell-based or functional assay
# [6] = target: HIV-1 Env of isolate MGRM-AE-005 (pseudovirus) (HIV-1); test: cell-based or functional assay
# [7] = target: HIV-1 Env of isolate 98CN006 (HIV-1); test: cell-based or functional assay
# [8] = target: HIV-1 Env of isolate 92UG031 (pseudovirus) (HIV-1); test: cell-based or functional assay
# [9] = target: HIV-1 Env of isolate MGRM-AE-004 (pseudovirus) (HIV-1); test: cell-based or functional assay
# [10] = target: HIV-1 Env of isolate MGRM-C-020 (subtype C), on pseudovirus (HIV-1); test: cell-based or functional assay
# [11] = target: HIV-1 Env of isolate 93WR029 (pseudovirus) (HIV-1); test: cell-based or functional assay
# [12] = target: HIV-1 Env of isolate 92WR020 (pseudovirus) (HIV-1); test: cell-based or functional assay
# [13] = target: HIV-1 Env of isolate 92WR021 (pseudovirus) (HIV-1); test: cell-based or functional assay
# [14] = target: HIV-1 Env of isolate 92WR024 (pseudovirus) (HIV-1); test: cell-based or functional assay
# [15] = target: WT JR-FL gp120 (HIV-1 JR-FL); test: ELISA, antigen-coated wells, mAb titrated; EC50 by nonlinear regression
# [16] = target: HIV-1 Env of isolate PVO.4 (HIV-1); test: cell-based or functional assay
# [17] = target: HIV-1 Env of isolate MGRM-Chronic-B-024 (HIV-1); test: cell-based or functional assay
# [18] = target: HIV-1 Env of isolate MGRM-Chronic-B-012 (HIV-1); test: cell-based or functional assay
# [19] = target: HIV-1 Env of pseudovirus isolate MGRM-C-024 (clade C) (HIV-1); test: cell-based or functional assay
# [20] = target: HIV-1 Env of isolate MGRM-AE-001 (subtype AE) (HIV-1); test: cell-based or functional assay
# [21] = target: HIV-1 Env of isolate JRCSF (HIV-1) (UniProt P20871); test: cell-based or functional assay
# [22] = target: HIV-1 Env of isolate MGRM-Chronic-B-020 (HIV-1); test: cell-based or functional assay
# [23] = target: HIV-1 Env of isolate MGRM-F1-018 (HIV-1); test: cell-based or functional assay
# [24] = target: HIV-1 Env of isolate MGRM-Chronic-B-017 (HIV-1); test: cell-based or functional assay
# [25] = target: HIV-1 Env of pseudovirus isolate MGRM-C-006 (clade C) (HIV-1); test: cell-based or functional assay
# [26] = target: HIV-1 Env of isolate 93IN905 (HIV-1); test: cell-based or functional assay
# [27] = target: HIV-1 Env of isolate TRO.11 (HIV-1); test: cell-based or functional assay
# HIV-1 NL43 Env (HIV-1) = test: cell-based or functional assay
# [28] = target: HIV-1 JR-CSF Env T394A (HIV-1 (isolate JR-CSF)) (UniProt P20871); test: cell-based or functional assay
# [29] = target: HIV-1 Env of isolate MGRM-Chronic-B-018 (HIV-1); test: cell-based or functional assay
# [30] = target: HIV-1 Env of isolate MGRM-D-001 (pseudovirus) (HIV-1); test: cell-based or functional assay
# [31] = target: HIV-1 Env of isolate MGRM-Chronic-B-011 (HIV-1); test: cell-based or functional assay
# [32] = target: HIV-1 Env of isolate MGRM-Chronic-B-023 (HIV-1); test: cell-based or functional assay
# [33] = target: HIV-1 Env of isolate NL43 (HIV-1); test: cell-based or functional assay
# [34] = target: HIV-1 Env of isolate SC422661.8 (HIV-1); test: cell-based or functional assay
# [35] = target: HIV-1 Env of pseudovirus isolate MGRM-C-027 (clade C) (HIV-1); test: cell-based or functional assay
# [36] = target: HIV-1 Env of isolate 98IN022 (HIV-1); test: cell-based or functional assay
# [37] = target: HIV-1 Env of isolate VLGCB3 (HIV-1); test: cell-based or functional assay
# [38] = target: HIV-1 Env of isolate QH0692.42 (HIV-1); test: cell-based or functional assay
# [39] = target: HIV-1 Env of isolate 93MW959 (HIV-1); test: cell-based or functional assay
# [40] = target: HIV-1 Env of isolate THR0.18 (HIV-1); test: cell-based or functional assay
# [41] = target: HIV-1 Env of isolate TRJ04551.58 (HIV-1); test: cell-based or functional assay
# [42] = target: HIV-1 Env of isolate 97ZA012 (HIV-1); test: cell-based or functional assay
# [43] = target: HIV-1 Env of isolate SF162 (HIV-1) (UniProt P19550); test: cell-based or functional assay
# [44] = target: HIV-1 Env of isolate MGRM-Chronic-B-010 (HIV-1); test: cell-based or functional assay
# [45] = target: JR-FL gp120 ΔV1/ΔV2 (HIV-1 JR-FL); test: ELISA, antigen-coated wells, mAb titrated; EC50 by nonlinear regression
substance,measurement,setting,value
4995_E20 (PGT-142) (antibody),"IC50 (µg/mL), single-round pseudovirus neutralization",[1],0.557 µg/mL
same,"IC50 (µg/mL), single-round pseudovirus neutralization",[2],> 50 µg/mL
same,"IC50, pseudovirus neutralization",[3],> 10 µg/mL
same,"IC50 (µg/mL), single-round pseudovirus neutralization",[4],> 50 µg/mL
same,"IC50 (µg/mL), single-round pseudovirus neutralization",[5],> 50 µg/mL
same,"IC50 (µg/mL), single-round pseudovirus neutralization",[6],> 50 µg/mL
same,"IC50 (µg/mL), pseudovirus neutralization",[7],> 50 µg/mL
same,"IC50 (µg/mL), single-round pseudovirus neutralization",[8],0.05 µg/mL
same,"IC50 (µg/mL), single-round pseudovirus neutralization",[9],0.001 µg/mL
same,"IC50, single-round pseudovirus neutralization",[10],0.446 µg/mL
same,"IC50 (µg/mL), single-round pseudovirus neutralization",[11],0.014 µg/mL
same,"IC50 (µg/mL), single-round pseudovirus neutralization",[12],31.5 µg/mL
same,"IC50 (µg/mL), single-round pseudovirus neutralization",[13],> 50 µg/mL
same,"IC50 (µg/mL), single-round pseudovirus neutralization",[14],0.069 µg/mL
4995_P16 (PGT-145) (antibody),"IC50 (µg/mL), single-round pseudovirus neutralization",[1],3.15 µg/mL
same,"IC50 (µg/mL), single-round pseudovirus neutralization",[2],0.331 µg/mL
same,"IC50 (µg/mL), single-round pseudovirus neutralization",[4],> 50 µg/mL
same,"IC50 (µg/mL), single-round pseudovirus neutralization",[5],> 50 µg/mL
same,"IC50 (µg/mL), single-round pseudovirus neutralization",[6],0.967 µg/mL
same,"IC50 (µg/mL), pseudovirus neutralization",[7],> 50 µg/mL
same,"IC50 (µg/mL), single-round pseudovirus neutralization",[8],3.22 µg/mL
same,"IC50 (µg/mL), single-round pseudovirus neutralization",[9],0.006 µg/mL
same,"IC50, single-round pseudovirus neutralization",[10],0.712 µg/mL
same,"IC50 (µg/mL), single-round pseudovirus neutralization",[11],> 50 µg/mL
same,"IC50 (µg/mL), single-round pseudovirus neutralization",[12],0.997 µg/mL
same,"IC50 (µg/mL), single-round pseudovirus neutralization",[13],1.62 µg/mL
same,"IC50 (µg/mL), single-round pseudovirus neutralization",[14],0.069 µg/mL
5147_N06 (PGT-130) (antibody),EC50,[15],0.2 µg/mL
same,"IC50 (µg/mL), pseudovirus neutralization",[16],5.17 µg/mL
same,"IC50 (µg/mL), pseudovirus neutralization",[1],0.061 µg/mL
same,"IC50 (µg/mL), pseudovirus neutralization",[17],5.78 µg/mL
same,"IC50 (µg/mL), pseudovirus neutralization",[2],1.4 µg/mL
same,"IC50 (µg/mL), pseudovirus neutralization",[18],0.373 µg/mL
same,"IC50, pseudovirus neutralization",[19],> 50 µg/mL
same,"IC50, pseudovirus neutralization",[3],0.014 µg/mL
same,"IC50, pseudovirus neutralization",[20],1 µg/mL
same,"IC50 (µg/mL), pseudovirus neutralization",[21],0.01 µg/mL
same,"IC50 (µg/mL), pseudovirus neutralization",[22],0.014 µg/mL
same,"IC50 (µg/mL), pseudovirus neutralization",[23],> 50 µg/mL
same,"IC50 (µg/mL), pseudovirus neutralization",[5],21.4 µg/mL
same,"IC50 (µg/mL), pseudovirus neutralization",[24],> 50 µg/mL
same,"IC50, pseudovirus neutralization",[25],0.095 µg/mL
same,"IC50 (µg/mL), pseudovirus neutralization",[26],0.02 µg/mL
same,"IC50 (µg/mL), pseudovirus neutralization",[27],0.257 µg/mL
same,"IC50, pseudovirus neutralization",HIV-1 NL43 Env (HIV-1),> 10 µg/mL
same,Fold IC50 increase relative to wild-type (pseudovirus neutralization),[28],1.2 fold
same,"IC50 (µg/mL), pseudovirus neutralization",[29],31.9 µg/mL
same,"IC50 (µg/mL), pseudovirus neutralization",[30],> 50 µg/mL
same,"IC50 (µg/mL), pseudovirus neutralization",[31],0.153 µg/mL
same,"IC50 (µg/mL), pseudovirus neutralization",[32],> 50 µg/mL
same,"IC50 (µg/mL), pseudovirus neutralization",[8],> 50 µg/mL
same,"IC50 (µg/mL), pseudovirus neutralization",[33],> 50 µg/mL
same,"IC50 (µg/mL), pseudovirus neutralization",[34],> 50 µg/mL
same,"IC50, pseudovirus neutralization",[35],0.008 µg/mL
same,"IC50 (µg/mL), pseudovirus neutralization",[36],> 50 µg/mL
same,"IC50 (µg/mL), pseudovirus neutralization",[11],34.3 µg/mL
same,"IC50 (µg/mL), pseudovirus neutralization",[12],0.039 µg/mL
same,"IC50 (µg/mL), pseudovirus neutralization",[37],4.6 µg/mL
same,"IC50 (µg/mL), pseudovirus neutralization",[38],> 50 µg/mL
same,"IC50 (µg/mL), pseudovirus neutralization",[39],8.55 µg/mL
same,"IC50 (µg/mL), pseudovirus neutralization",[13],0.004 µg/mL
same,"IC50 (µg/mL), pseudovirus neutralization",[40],> 50 µg/mL
same,"IC50 (µg/mL), pseudovirus neutralization",[41],0.023 µg/mL
same,"IC50 (µg/mL), pseudovirus neutralization",[42],1.32 µg/mL
same,"IC50 (µg/mL), pseudovirus neutralization",[43],0.007 µg/mL
same,"IC50 (µg/mL), pseudovirus neutralization",[14],> 50 µg/mL
same,"IC50 (µg/mL), pseudovirus neutralization",[44],0.006 µg/mL
5343_B08 (PGT-135) (antibody),EC50,[15],0.1 µg/mL
same,EC50,[45],0.1 µg/mL
same,"IC50 (µg/mL), pseudovirus neutralization",[16],> 50 µg/mL
same,"IC50 (µg/mL), pseudovirus neutralization",[1],3.67 µg/mL
same,"IC50 (µg/mL), pseudovirus neutralization",[17],> 50 µg/mL
same,"IC50 (µg/mL), pseudovirus neutralization",[2],> 50 µg/mL
same,"IC50 (µg/mL), pseudovirus neutralization",[18],0.166 µg/mL
same,"IC50, pseudovirus neutralization",[19],> 50 µg/mL
same,"IC50, pseudovirus neutralization",[3],0.157 µg/mL
same,"IC50, pseudovirus neutralization",[20],> 50 µg/mL
same,"IC50 (µg/mL), pseudovirus neutralization",[21],0.131 µg/mL
same,"IC50 (µg/mL), pseudovirus neutralization",[22],0.057 µg/mL
same,"IC50 (µg/mL), pseudovirus neutralization",[23],> 50 µg/mL
same,"IC50 (µg/mL), pseudovirus neutralization",[5],> 50 µg/mL
same,"IC50 (µg/mL), pseudovirus neutralization",[24],> 50 µg/mL
same,"IC50, pseudovirus neutralization",[25],> 50 µg/mL
same,"IC50 (µg/mL), pseudovirus neutralization",[26],0.011 µg/mL
same,"IC50 (µg/mL), pseudovirus neutralization",[27],0.03 µg/mL
same,Fold IC50 increase relative to wild-type (pseudovirus neutralization),[28],> 75 fold
same,"IC50 (µg/mL), pseudovirus neutralization",[29],> 50 µg/mL
same,"IC50 (µg/mL), pseudovirus neutralization",[30],> 50 µg/mL
same,"IC50 (µg/mL), pseudovirus neutralization",[31],> 50 µg/mL
same,"IC50 (µg/mL), pseudovirus neutralization",[32],0.329 µg/mL
same,"IC50 (µg/mL), pseudovirus neutralization",[8],> 50 µg/mL
same,"IC50 (µg/mL), pseudovirus neutralization",[33],8.03 µg/mL
same,"IC50 (µg/mL), pseudovirus neutralization",[34],21.8 µg/mL
same,"IC50, pseudovirus neutralization",[35],> 50 µg/mL
same,"IC50 (µg/mL), pseudovirus neutralization",[36],0.014 µg/mL
same,"IC50 (µg/mL), pseudovirus neutralization",[11],> 50 µg/mL
same,"IC50 (µg/mL), pseudovirus neutralization",[12],0.067 µg/mL
same,"IC50 (µg/mL), pseudovirus neutralization",[37],0.142 µg/mL
same,"IC50 (µg/mL), pseudovirus neutralization",[38],> 50 µg/mL
same,"IC50 (µg/mL), pseudovirus neutralization",[39],> 50 µg/mL
same,"IC50 (µg/mL), pseudovirus neutralization",[13],> 50 µg/mL
same,"IC50 (µg/mL), pseudovirus neutralization",[40],> 50 µg/mL
same,"IC50 (µg/mL), pseudovirus neutralization",[41],> 50 µg/mL
same,"IC50 (µg/mL), pseudovirus neutralization",[42],> 50 µg/mL
same,"IC50 (µg/mL), pseudovirus neutralization",[43],0.023 µg/mL
same,"IC50 (µg/mL), pseudovirus neutralization",[14],> 50 µg/mL
same,"IC50 (µg/mL), pseudovirus neutralization",[44],> 50 µg/mL
